Residue numbers refer to the chain shown, from its start.
T1: human EphA3 (Homo sapiens, UniProt P29320)
T1 construct: a protein of the extracellular region of each human Eph receptor fused with the SEAP protein and the His tag; made in house; host or cells: Expi293F cells (culture supernatant)
T1 sequence (P29320 21-541 limits assumed): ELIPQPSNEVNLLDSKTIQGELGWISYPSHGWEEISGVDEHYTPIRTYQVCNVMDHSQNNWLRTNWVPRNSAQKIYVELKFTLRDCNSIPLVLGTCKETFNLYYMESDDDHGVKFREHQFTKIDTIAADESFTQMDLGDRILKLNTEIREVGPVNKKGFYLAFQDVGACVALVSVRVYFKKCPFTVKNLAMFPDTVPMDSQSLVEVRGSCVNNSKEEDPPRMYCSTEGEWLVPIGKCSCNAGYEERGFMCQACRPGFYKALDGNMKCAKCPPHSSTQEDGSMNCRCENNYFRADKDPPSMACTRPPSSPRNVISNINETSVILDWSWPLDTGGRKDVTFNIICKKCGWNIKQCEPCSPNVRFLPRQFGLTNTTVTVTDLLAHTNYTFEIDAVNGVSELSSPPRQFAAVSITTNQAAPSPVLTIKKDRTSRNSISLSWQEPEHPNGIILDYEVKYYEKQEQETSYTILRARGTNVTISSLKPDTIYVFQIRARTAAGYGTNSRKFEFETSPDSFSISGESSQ

T2: human EphB4 (Homo sapiens, UniProt P54760)
T2 construct: a protein of the extracellular region of each human Eph receptor fused with the SEAP protein and the His tag; made in house; host or cells: Expi293F cells
T2 sequence (P54760 16-539 limits assumed): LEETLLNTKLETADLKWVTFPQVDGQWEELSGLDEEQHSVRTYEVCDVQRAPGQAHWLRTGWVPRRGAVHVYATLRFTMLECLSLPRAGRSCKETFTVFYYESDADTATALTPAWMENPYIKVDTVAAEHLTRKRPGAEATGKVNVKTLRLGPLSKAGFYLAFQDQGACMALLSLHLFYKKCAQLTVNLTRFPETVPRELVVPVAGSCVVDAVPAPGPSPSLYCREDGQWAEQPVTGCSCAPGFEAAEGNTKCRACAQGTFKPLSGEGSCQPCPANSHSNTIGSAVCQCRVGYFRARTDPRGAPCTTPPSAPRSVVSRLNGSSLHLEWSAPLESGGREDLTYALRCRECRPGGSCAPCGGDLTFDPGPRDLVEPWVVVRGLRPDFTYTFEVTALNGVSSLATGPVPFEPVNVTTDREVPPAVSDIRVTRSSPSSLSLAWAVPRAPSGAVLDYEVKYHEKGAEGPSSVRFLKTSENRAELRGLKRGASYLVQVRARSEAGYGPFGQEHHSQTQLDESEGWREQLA

T3: human EphB2 (Homo sapiens, UniProt P29323)
T3 construct: a protein of the extracellular region of each human Eph receptor fused with the SEAP protein and the His tag; made in house; host or cells: Expi293F cells
T3 sequence (P29323 19-543 limits assumed): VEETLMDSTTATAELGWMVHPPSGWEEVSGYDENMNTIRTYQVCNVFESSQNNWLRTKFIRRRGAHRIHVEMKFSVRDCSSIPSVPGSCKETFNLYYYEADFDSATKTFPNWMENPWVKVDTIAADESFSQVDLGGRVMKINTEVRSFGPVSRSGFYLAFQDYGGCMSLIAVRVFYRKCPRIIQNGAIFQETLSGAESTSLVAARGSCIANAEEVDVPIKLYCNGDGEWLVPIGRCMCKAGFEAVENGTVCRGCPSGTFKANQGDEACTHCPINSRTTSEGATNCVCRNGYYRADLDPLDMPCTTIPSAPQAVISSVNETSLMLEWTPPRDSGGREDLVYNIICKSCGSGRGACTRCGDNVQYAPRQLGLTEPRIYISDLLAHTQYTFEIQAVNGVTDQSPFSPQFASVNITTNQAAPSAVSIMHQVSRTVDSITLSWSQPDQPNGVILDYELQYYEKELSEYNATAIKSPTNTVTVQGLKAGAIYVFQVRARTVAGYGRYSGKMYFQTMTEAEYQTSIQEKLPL

B1: 69 (antibody, V domains shown)
VH: QIQLVQSGSELKKPGASVKVSCKASGYTFTDYSMHWVRQAPGQGLKWMGWINTETGEPTYADDFKGRFVFSLDTSVSTAYLQISSLKAEDTAVYYCARIPLYYYGSRYWYFDVWGQGTTVTVSS
VL: DIQMTQSPSSLSASVGDRVTITCRASENIYRNLAWYQQKPGKAPKLLVYAATNLADGVPSRFSGSGSGTDYTLTISSLQPEDFATYYCQHFWGTPWTFGQGTKVEIK
modifications: synthetic humanized antibody heavy chain variable region sequence; synthetic humanized antibody light chain variable region sequence
B2: 88 (antibody, V domains shown)
VL: B1 VL with K45Q, V48L
VH: B1 VH with I2V, D62Q, D63G, K65T
modifications: constant regions without entry; synthetic humanized antibody light chain variable region sequence; synthetic humanized antibody heavy chain variable region sequence
B3: 83 (antibody, V domains shown)
VL: B1 VL with V48L, P80S
VH: B1 VH with D62Q, D63G, K65T
modifications: constant regions without entry; synthetic humanized antibody light chain variable region sequence; synthetic humanized antibody heavy chain variable region sequence
B4: 85 (antibody, V domains shown)
VL: B1 VL with V48L, P80S
VH: B1 VH with I2V
modifications: constant regions without entry; synthetic humanized antibody light chain variable region sequence; synthetic humanized antibody heavy chain variable region sequence
B5: 87 (antibody, V domains shown)
VL: B1 VL with K45Q, V48L
VH: B1 VH with I2V, K46E, D62Q, D63G, K65T
modifications: constant regions without entry; synthetic humanized antibody light chain variable region sequence; synthetic humanized antibody heavy chain variable region sequence
B6: 81 (antibody, V domains shown)
VL: B1 VL with V48L, P80S
VH: B1 VH with I2V, K46E, D62Q, D63G, K65T
modifications: constant regions without entry; synthetic humanized antibody light chain variable region sequence; synthetic humanized antibody heavy chain variable region sequence
B7: 84 (antibody, V domains shown)
VL: B1 VL with V48L, P80S
VH: B1 VH with I2V, K46E
modifications: constant regions without entry; synthetic humanized antibody light chain variable region sequence; synthetic humanized antibody heavy chain variable region sequence
B8: 82 (antibody, V domains shown)
VL: B1 VL with V48L, P80S
VH: B1 VH with I2V, D62Q, D63G, K65T
modifications: constant regions without entry; synthetic humanized antibody light chain variable region sequence; synthetic humanized antibody heavy chain variable region sequence
B9: 86 (antibody, V domains shown)
VL: B1 VL with V48L, P80S
VH: B1 VH
modifications: constant regions without entry; synthetic humanized antibody light chain variable region sequence; synthetic humanized antibody heavy chain variable region sequence

How the values were obtained:
Assay in all cases: Selectivity ELISA of humanized antibodies for human Eph receptor
Assay type in all cases: binding
Conditions in all cases: coated protein 1 nM
human EphA3 = target: T1, human EphA3
Outline: (§1)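 Human Eph ECD-SEAP-His fusions, harvested after 5 days of Expi293F expression, are captured on anti-His-coated wells (1 nM final). Bound humanized antibody is detected with HRP anti-IgG and TMB at 450 nm.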

human EphA2 = target: T4, human EphA2 (Homo sapiens, UniProt P29317)
T4 construct: a protein of the extracellular region of each human Eph receptor fused with the SEAP protein and the His tag; made in house; host or cells: Expi293F cells (culture supernatant)
Outline: as §1

human EphB4 = target: T2, human EphB4
Outline: as §1

human EphB2 = target: T3, human EphB2
Outline: as §1

SEAP-His = SEAP-His (Homo sapiens, UniProt P05187)
Outline: as §1

T4 sequence (P29317 24-537 limits assumed): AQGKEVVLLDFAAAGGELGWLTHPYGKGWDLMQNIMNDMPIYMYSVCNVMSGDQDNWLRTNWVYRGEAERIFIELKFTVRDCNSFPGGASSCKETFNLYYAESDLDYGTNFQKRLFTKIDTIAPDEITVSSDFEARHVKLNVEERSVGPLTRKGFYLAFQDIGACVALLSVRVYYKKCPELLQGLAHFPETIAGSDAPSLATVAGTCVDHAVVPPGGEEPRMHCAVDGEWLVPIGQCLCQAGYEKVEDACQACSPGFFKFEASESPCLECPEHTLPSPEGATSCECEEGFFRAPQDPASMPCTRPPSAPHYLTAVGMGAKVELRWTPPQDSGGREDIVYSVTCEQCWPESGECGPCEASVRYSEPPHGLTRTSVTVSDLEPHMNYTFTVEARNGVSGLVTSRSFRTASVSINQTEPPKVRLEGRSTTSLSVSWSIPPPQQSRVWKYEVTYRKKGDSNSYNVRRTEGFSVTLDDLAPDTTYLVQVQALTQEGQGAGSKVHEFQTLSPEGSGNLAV
SEAP-His, sequence (P05187 23-511 limits assumed): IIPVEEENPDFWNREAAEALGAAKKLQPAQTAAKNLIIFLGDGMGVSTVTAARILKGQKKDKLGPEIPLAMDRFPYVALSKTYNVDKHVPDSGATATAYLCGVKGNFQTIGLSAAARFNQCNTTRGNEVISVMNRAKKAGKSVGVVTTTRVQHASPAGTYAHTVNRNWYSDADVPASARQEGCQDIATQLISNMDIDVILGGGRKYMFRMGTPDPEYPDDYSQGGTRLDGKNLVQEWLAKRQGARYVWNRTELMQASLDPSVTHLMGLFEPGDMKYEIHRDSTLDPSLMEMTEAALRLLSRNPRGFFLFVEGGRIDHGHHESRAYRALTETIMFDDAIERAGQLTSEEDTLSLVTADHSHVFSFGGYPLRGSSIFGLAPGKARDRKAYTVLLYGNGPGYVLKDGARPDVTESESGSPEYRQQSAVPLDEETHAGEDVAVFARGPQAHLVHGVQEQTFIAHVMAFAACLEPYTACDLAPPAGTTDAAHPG

Row | Molecule | hEphA3-SEAP-: absorbance at 450 nm, percentage with respect to hEphA4-SEAP-His as 100% (human EphA3) [%] | hEphA2-SEAP-: absorbance at 450 nm, percentage with respect to hEphA4-SEAP-His as 100% (human EphA2) [%] | hEphB4-SEAP-: absorbance at 450 nm, percentage with respect to hEphA4-SEAP-His as 100% (human EphB4) [%] | hEphB2-SEAP-: absorbance at 450 nm, percentage with respect to hEphA4-SEAP-His as 100% (human EphB2) [%] | SEAP-His: absorbance at 450 nm, percentage with respect to hEphA4-SEAP-His as 100% (SEAP-His) [%]
1 | B1 | 5.4 | 5.5 | 5.5 | 5.5 | 6.1
2 | B2 | 6.0 | 5.8 | 6.1 | 6.0 | 6.1
3 | B3 | 5.7 | 5.8 | 5.7 | 5.6 | 6.5
4 | B4 | 5.1 | 5.1 | 5.2 | 5.1 | 5.3
5 | B5 | 5.5 | 5.4 | 5.5 | 5.4 | 5.5
6 | B6 | 5.0 | 4.8 | 5.0 | 5.0 | 5.0
7 | B7 | 4.9 | 4.9 | 5.4 | 4.9 | 5.1
8 | B8 | 5.4 | 5.4 | 5.7 | 5.6 | 5.9
9 | B9 | 5.8 | 5.7 | 5.8 | 5.7 | 6.1

Reference: patent US10428140B2, “Anti-EphA4 antibody” (EISAI R&D MANAGEMENT CO., LTD., priority 2015, dated 2019)
